Values of other authors as cited in publication PMC8359934.

Biological target: sNUCB1 (Homo sapiens) (UniProt Q02818)
Assay: SEC-MALS

Kd: 260 nM
Substance: sNUCB1 (from UniProt Q02818)
